Patent US20190062438A1 (CSL, published 2019)
Residue numbers refer to the chain shown, from its start. Like-named read-outs stand apart in the source and are kept apart here.

T1: soluble Homo sapiens CD131 comprising a C-terminal 6xHis tag (human, UniProt P32927 17-438)
T1 construct: truncated after Ser438, C-terminal 6xHis; also called shCD131; shβc
T1 sequence: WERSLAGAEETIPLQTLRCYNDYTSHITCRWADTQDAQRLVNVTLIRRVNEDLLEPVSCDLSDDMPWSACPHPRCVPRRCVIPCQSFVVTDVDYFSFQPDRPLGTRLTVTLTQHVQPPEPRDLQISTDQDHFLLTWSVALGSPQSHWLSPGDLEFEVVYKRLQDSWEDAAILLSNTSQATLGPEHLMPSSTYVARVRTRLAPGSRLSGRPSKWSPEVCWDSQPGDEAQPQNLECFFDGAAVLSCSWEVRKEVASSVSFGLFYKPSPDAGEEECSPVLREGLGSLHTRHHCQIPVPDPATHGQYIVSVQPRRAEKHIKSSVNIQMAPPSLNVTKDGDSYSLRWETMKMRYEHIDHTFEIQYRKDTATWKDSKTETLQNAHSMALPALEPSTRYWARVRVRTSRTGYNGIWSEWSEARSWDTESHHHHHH

T2: human CD131 (human, UniProt P32927 17-897)
T2 sequence: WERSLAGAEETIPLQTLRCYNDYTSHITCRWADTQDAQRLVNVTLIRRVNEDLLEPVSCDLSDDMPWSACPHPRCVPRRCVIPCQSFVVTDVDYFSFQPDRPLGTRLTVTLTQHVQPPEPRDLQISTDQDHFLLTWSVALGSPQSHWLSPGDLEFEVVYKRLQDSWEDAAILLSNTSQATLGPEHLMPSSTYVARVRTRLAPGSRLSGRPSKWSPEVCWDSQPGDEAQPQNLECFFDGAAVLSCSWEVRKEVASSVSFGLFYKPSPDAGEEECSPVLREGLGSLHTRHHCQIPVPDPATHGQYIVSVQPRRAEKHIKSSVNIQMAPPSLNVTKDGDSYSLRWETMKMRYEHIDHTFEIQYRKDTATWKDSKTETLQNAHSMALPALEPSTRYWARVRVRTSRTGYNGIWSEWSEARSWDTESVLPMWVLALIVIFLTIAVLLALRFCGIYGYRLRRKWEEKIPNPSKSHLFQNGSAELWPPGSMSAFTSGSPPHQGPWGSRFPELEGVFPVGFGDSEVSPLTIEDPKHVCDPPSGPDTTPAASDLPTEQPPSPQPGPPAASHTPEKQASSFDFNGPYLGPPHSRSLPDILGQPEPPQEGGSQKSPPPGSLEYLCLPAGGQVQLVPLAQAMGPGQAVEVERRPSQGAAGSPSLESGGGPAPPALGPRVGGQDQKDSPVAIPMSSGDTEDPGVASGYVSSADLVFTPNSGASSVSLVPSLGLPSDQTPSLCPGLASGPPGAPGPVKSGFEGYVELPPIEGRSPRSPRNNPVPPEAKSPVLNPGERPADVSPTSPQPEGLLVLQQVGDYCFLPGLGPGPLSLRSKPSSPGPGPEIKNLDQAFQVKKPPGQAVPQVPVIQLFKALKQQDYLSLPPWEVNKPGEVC

B1: 9A2-VR24 Fab (Fab, V domains shown)
VH: EVQLLESGGGLVQPGGSLRLSCAASGFTFPWYRVHWVRQAPGKGLEWVSSIRSSGGFTYYADSVKGRFTISRDNSKNTLYLQMNSLRAEDTAVYYCARFYDSFFDIWGQGTMVTVSS
VL: DIQMTQSPSSVSASVGDRVTITCRASQGISSWLAWYQQKPGKAPKLLIYAASSLQSGVPSRFSGSGSGTDFTLTISSLQPEDFATYYCQQANSFPITFGQGTRLEIKR
notes: recombinant Fab
B2: 9A2-VR24 (antibody, V domains shown)
VH: B1 VH
VL: B1 VL
B3: 9A2-VR39 (antibody, V domains shown)
VH: B1 VH with P30S, W31H, R33H, V34M, H35L, R52N, S53G, S54R, G56R, F57V
VL: B1 VL
B4: 9A2-VR42 Fab (Fab, V domains shown)
VH: EVQLLESGGGLVQPGGSLRLSCAASGFTFSHYHMLWVRQAPGKGLEWVSSIGGDIRQTYYADSVKGRFTISRDNSKNTLYLQMNSLRAEDTAVYYCARFYDSFFDIWGQGTMVTVSS
VL: B1 VL
notes: recombinant Fab
B5: 9A2-VR44 Fab (Fab, V domains shown)
VH: B1 VH with P30S, W31H, R33H, V34M, H35L, F103H
VL: B1 VL
notes: recombinant Fab
B6: 9A2-VR41 Fab (Fab, V domains shown)
VH: B4 VH with G52N, D54K, I55G, R56W, Q57T
VL: B1 VL
notes: recombinant Fab
B7: 9A2-VR24.29 Fab (Fab, V domains shown)
VH: B1 VH with T58P, A61N, D62Y, S63K
VL: B1 VL
notes: recombinant Fab; also called recombinant Fab fragment of 9A2-VR24.29
B8: 9A2-VR40 Fab (Fab, V domains shown)
VH: B4 VH with G52N, D54Y, I55G, R56I
VL: B1 VL
notes: recombinant Fab
B9: 9A2-VR39 Fab (Fab, V domains shown)
VH: B4 VH with G52N, D54R, I55G, Q57V
VL: B1 VL
notes: recombinant Fab
B10: recombinant human GM-CSF (ligand, UniProt P04141 18-144, looked up)
chain: APARSYYSPSTQPWEHVNAIQEARRLLNLSRDTAAEMNETVEVISEMFDLQEPTCLQTRLELYKQGLRGSLTKLKGPLTMMASHYKQHCPPTPETSCATQIITFESFKENLKDFLLVIPFDCWEPVQE
modifications: radio-iodinated where used as label
notes: position probably counts on mature GM-CSF

Columns and labels:
[1] = target: T1, soluble Homo sapiens CD131 comprising a …; test: SPR, Fab over captured shCD131
Protocol: (§1) Binding kinetics were measured using SPR with a BIAcore™ A-100 instrument (GE Healthcare Life Sciences). An anti-C-terminal Hexa-His antibody (3H3) was immobilized on spots 1, 2, 4 and 5 of each flow cell of a CM-5 sensor chip (GE Healthcare Life Sciences) using amine-coupling chemistry (116). […] As shβc is a dimer, kinetics assays were performed with shβc captured on the sensor surface, and purified Fab injected as the analyte. Avidity effects were avoided by the use of Fab rather than whole IgG.
(§2) shCD131 was captured on spots 1 and 5 of each flow cell for 2 minutes at a concentration of 0.4 μg/ml. […] For some analysis purified Fab was injected over each flow cell for 3 minutes and dissociation was monitored for a further 10 minutes. Regeneration of the surface was performed after each cycle with a 40 second injection of 25 mM glycine, pH 2.0. The analysis was performed with Fabs at several concentrations between 100 and 0.31 nM, with each concentration analyzed twice and in random order. The analysis was performed at a flow rate of 30 μl/min in HBS-EP buffer (10 mM Hepes, 150 mM NaCl, 3 mM EDTA, 0.005% Tween 20, pH 7.4) at 37° C. Responses from spots 2 and 4 of each flow cell, (in which shβc was not captured, but otherwise treated identically), were subtracted from those of spots 1 and 5 respectively to produce reference subtracted data. Reference subtracted responses from a blank injection comprising buffer alone were subtracted from the resultant sensorgrams to produce double referenced data suitable for kinetic analysis. Double-referenced sensorgrams were fitted using non-linear regression to a model describing 1:1 kinetics, including a term for mass transport limitation. The Rₘₐₓ value was fitted locally to account for slight deviations in the level of sCD131 captured, with association rate (kₐ), dissociation rate (kd) and equilibrium dissociation constant (KD) fitted globally.

[2] = target: T1, soluble Homo sapiens CD131 comprising a …; test: SPR, Fab over captured shCD131; remark: listed apart in the source
Protocol: as §1, §2

human CD131 [3] = target: T2, human CD131; test: cell-based or functional assay
human CD131 [4] = target: T2, human CD131; test: cell-based or functional assay; remark: listed apart in the source
human CD131 [5] = target: T2, human CD131; test: cell-based or functional assay; remark: listed apart in the source
[6] = target: T1, soluble Homo sapiens CD131 comprising a …; test: SPR, kinetics, Fab over captured shCD131
human CD131 [7] = target: T2, human CD131; test: saturation binding of radio-iodinated Fab to TF1 cells (third of three values in the cell)
Protocol: (§3) Cytokines and antibodies were radio-iodinated using Pierce Pre-Coated Iodination tubes (Thermo Scientific) according to the manufacturer's instructions. MAb binding to cells expressing hβc was determined by incubating 1-2×10⁶ cells with radio-iodinated mAb at a range of concentrations at 23° C. for 1-2 hours with gentle mixing. Cell suspensions were then centrifuged through fetal calf serum (FCS) and radioactivity associated with the cells pellets was assessed by counting in a Wizard² 2470 Automatic Gamma Counter (Perkin Elmer, Rowville, VIC, Australia). Non-specific binding was assessed for each radio-iodinated mAb in the presence of at least a 500-fold excess of unlabeled mAb. […] Competition binding assays were performed essentially as previously described (41). Briefly 1-2×10⁶ cells were incubated with mAb or cytokine competitor at a range of concentrations at 4° C. for 45 minutes with gentle mixing. Radio-iodinated cytokine or mAb was then added and the mixture incubated at 23° C. for a further 1-2 hours with gentle mixing. Cell suspensions were then centrifuged through FCS and radioactivity associated with the cells pellets assessed by counting.

human CD131 [8] = target: T2, human CD131; test: saturation binding of radio-iodinated Fab to TF1 cells (second of three values in the cell)
Protocol: as §3

human CD131 [9] = target: T2, human CD131; test: saturation binding of radio-iodinated Fab to cells; row 'Average for all cells (±SEM)' (neutrophils, TF1 cells)
human CD131 [10] = target: T2, human CD131; test: saturation binding of radio-iodinated Fab to TF1 cells (first of three values in the cell)
Protocol: as §3

human CD131 [11] = target: T2, human CD131; test: saturation binding of radio-iodinated Fab on human neutrophils
Protocol: Each point is the mean of duplicate determinations of cell-bound radio-iodinated antibody after subtraction of non-specific binding. Data from a single neutrophil binding experiment and a representative eosinophil binding experiment, n=2 is shown.
as §3, with “Radio-iodinated cytokine or mAb was then added and the mixture incubated at 23° C. for a further 1-2 hours with gentle mixing.” left out

human CD131 [12] = target: T2, human CD131; test: competition binding on TF-1 cells: cells pre-incubated with the cytokine, then equilibrated with 85 pM radio-iodinated 9A2-VR24.29; cell-bound c.p.m.
Protocol: Each point is the mean of duplicate determinations of cell-bound radioiodinated cytokine and error bars represent the standard deviation.
as §3

Binder | Kd [1] [nM] | koff [1] [s⁻¹] | kon [1] [M⁻¹ s⁻¹] | Kd [2] [nM] | koff [2] [s⁻¹] | kon [2] [M⁻¹ s⁻¹] | also measured
B1 | 0.46 | 0.0011 | 2.3e+06 | 0.46 | 0.0011 | 2.3e+06 | fold decrease in dissociation rate (kd) compared to parental 9A2 [1]: 87 fold; fold decrease in the dissociation rate (kd) compared to parental 9A2 [1]: 87 fold; fold higher affinity compared to parental 9A2 [1]: 106 fold
B2 | – | – | – | – | – | – | IC50 GM-CSF, TF-1 proliferation (human CD131 [3]): 2.5 nM; fold potency improvement (GM-CSF) over parental 9A2 (human CD131 [4]): 182 fold; IC50 GM-CSF, TF-1 proliferation (human CD131 [5]): 2.5 nM; IC50 IL-3, TF-1 proliferation (human CD131 [5]): 0.726 nM; IC50 IL-5, TF-1 proliferation (human CD131 [5]): 23.5 nM; pStat5 IC50 GM-CSF, TF-1 bla reporter (human CD131 [5]): 8.6 nM
B3 | – | – | – | – | – | – | IC50 GM-CSF, TF-1 proliferation (human CD131 [3]): 0.88 nM; fold improvement in GM-CSF potency over parental 9A2 (human CD131 [4]): 518 fold; IC50 GM-CSF, TF-1 proliferation (human CD131 [5]): 0.88 nM; pStat5 IC50 GM-CSF, TF-1 bla reporter (human CD131 [5]): 4.1 nM
B4 | 0.38 | – | – | – | – | – | –
B5 | 5 | – | – | – | – | – | –
B6 | 0.46 | 0.00076 | 1.7e+06 | – | – | – | –
B7 | – | – | – | 0.1 | 0.000418 | 4e+06 | Kd [6]: 0.1 nM; Kd (human CD131 [7]): 0.522 nM; Kd (human CD131 [8]): 0.668 nM; Kd (human CD131 [9]): 0.569 nM; Kd (human CD131 [10]): 0.656 nM; Kd (human CD131 [11]): 0.384 nM
B8 | 0.52 | 0.00066 | 1.3e+06 | – | – | – | –
B9 | 0.27 | 0.00059 | 3e+06 | 0.27 | 0.00059 | 3e+06 | fold improvement in binding affinity over parental 9A2 [1]: ~180 fold
B10 | – | – | – | – | – | – | IC50 (read off the curve) (human CD131 [12]): ~0.03 nM
